Publication PMC4554459, “Paracoccus denitrificans possesses two BioR homologs having a role in regulation of biotin metabolism”

T1: BioR2 (Paracoccus denitrificans PD1222, UniProt A1B662 1-221)
T1 sequence: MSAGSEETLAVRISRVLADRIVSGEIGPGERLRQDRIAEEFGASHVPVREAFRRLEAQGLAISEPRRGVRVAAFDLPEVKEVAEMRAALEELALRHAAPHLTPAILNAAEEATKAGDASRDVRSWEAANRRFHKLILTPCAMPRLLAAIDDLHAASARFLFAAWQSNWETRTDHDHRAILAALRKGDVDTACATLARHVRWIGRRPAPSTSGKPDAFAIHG

B1: bioBFDAZ_at (bioB_at) probe (dsDNA)
DNA 1: CTCTCTTGAGGAGGCAAAAATTATCTATAATTTGCCATTTAACGACCTGC
DNA 2: GCAGGTCGTTAAATGGCAAATTATAGATAATTTTTGCCTCCTCAAGAGAG
B2: bioR1_pd probe (dsDNA)
DNA 1: GGTGCAGCATGAATTATCTATAATTCATGAAACACG
DNA 2: CGTGTTTCATGAATTATAGATAATTCATGCTGCACC
B3: bioBFDAGC_pd probe (dsDNA)
DNA 1: GGCGCTGACCGTTTTATAGATACTTCCACATGAGGC
DNA 2: GCCTCATGTGGAAGTATCTATAAAACGGTCAGCGCC
B4: bioYB_pd1 probe (dsDNA)
DNA 1: GATTCCCGGATAATTATCTATAAACCTAATTGCCAG
DNA 2: CTGGCAATTAGGTTTATAGATAATTATCCGGGAATC
B5: bioYB_pd2 probe (dsDNA)
DNA 1: CAAAGCCTTCGTAATTATAGATAGACTCGATACCTATC
DNA 2: GATAGGTATCGAGTCTATCTATAATTACGAAGGCTTTG
B6: cold bioBFDAGC_pd probe (dsDNA)
DNA 1: B3 DNA 1
DNA 2: B3 DNA 2

Assays:
BioR2 [1] = target: T1, BioR2; assay: EMSA; ~0.2 pmol DIG-labeled probe with BioR (10-20 pmol BioR2 in 15 uL, Fig. 6) in Roche binding buffer, 15 min, room temperature; native 7% PAGE; salt and pH of binding buffer not stated (protein in PBS pH 7.4, 10% glycerol); conditions: protein: recombinant; tags: 6xHis (pET28a); chain copies: 2; label: digoxigenin; blunt
BioR2 [2] = target: T1, BioR2; assay: EMSA; pimeloyl-ACP (no effect); ~0.2 pmol DIG-labeled probe with BioR (10-20 pmol BioR2 in 15 uL, Fig. 6) in Roche binding buffer, 15 min, room temperature; native 7% PAGE; salt and pH of binding buffer not stated (protein in PBS pH 7.4, 10% glycerol); conditions: protein: recombinant; tags: 6xHis (pET28a); chain copies: 2; label: digoxigenin; blunt
BioR2 [3] = target: T1, BioR2; assay: competition; cold probe 10, 20, 50 pmol vs 0.2 pmol DIG-bioBFDAGC; ~0.2 pmol DIG-labeled probe with BioR (10-20 pmol BioR2 in 15 uL, Fig. 6) in Roche binding buffer, 15 min, room temperature; native 7% PAGE; salt and pH of binding buffer not stated (protein in PBS pH 7.4, 10% glycerol); conditions: protein: recombinant; tags: 6xHis (pET28a); chain copies: 2; blunt

Binder | binding result (BioR2 [1]) | also measured
B1 | binds | –
B2 | binds | –
B3 | – | binding result (BioR2 [2]): binds
B4 | binds | –
B5 | binds | –
B6 | – | binding result (BioR2 [3]): binds
